# Source: patent US20210206850A1 (ACCURUS BIOSCIENCES, published 2021)
# Tests used:
# [1] = molecular target: T1, human CD47ECD mouse Fc protein (human, UniProt Q08722 19-139, limits assumed); test: SPR (Biacore 3000); antibody captured on anti-human Fc chip, bivalent HuCD47ECD muFc injected
# T1 construct: extracellular domain; also called HuCD47ECD muFc; bivalent CD47ECD muFc protein; not shown: mouse Fc
# Description: (§1) The binding affinities of anti-human CD47 mouse/human chimeric antibodies to human CD47 protein were determined with BIACORE™ using a capture method. The anti-human CD47 mouse/human chimeric antibodies were captured using anti-human Fc antibody coated on a CMS chip. Serial dilutions of human CD47ECD mouse Fc protein starting from 400 nM were injected over captured antibody for 1 mins at a flow rate of […]. Alternatively, serial dilutions of human CD47ECD His tagged protein starting from 800 nM were injected over captured antibody for 1 min at a flow rate of […]. The antigens were allowed to dissociate for 900s. All the experiments were carried out on a Biacore 3000. Data analysis was carried out using Biacore 3000 evaluation software.
# [2] = molecular target: T2, human CD47ECD His tagged protein (human, UniProt Q08722 19-139, limits assumed); test: SPR (Biacore 3000); antibody captured on anti-human Fc chip, monovalent HuCD47ECD 8xHis injected
# T2 construct: extracellular domain; also called HuCD47ECD 8xHis; monovalent CD47ECD His tagged protein
# Description: as §1
# [3] = molecular target: T3, human CD47 (full length) expressed on cells (human, UniProt Q08722 19-323); test: FACS ligand blocking on CD47-CHO cells; blocked ligand FITC human SIRPa huFc at 4 ug/ml
# T3 construct: whole, on cells; also called human CD47/CHO cells; CHO/CD47 cells
# Description: To evaluate the blocking effect of anti-human CD47 mouse/human chimeric antibodies to human full length CD47 expressed on CHO cells, the FACS-based ligand blocking assay was used. CD47-CHO cells were first incubated with 3 fold serially diluted mouse/human chimeric mAbs starting at 100 μg/ml on ice for 30 min. […] The cells were then washed 3 times with the FACS buffer and the mean florescence intensities (MFI) of FITC were evaluated by FACS Caliber. […] AB6.12 is a humanized version of anti-CD47 antibody 2A1 from Celgene and was used as a reference antibody in the assay.
# [4] = molecular target: T1, human CD47ECD mouse Fc protein; test: SPR (Biacore 3000); antibody captured on anti-human Fc chip, bivalent HuCD47ECD muFc injected; column Affinity (nM)
# Description: as §1
# [5] = molecular target: T2, human CD47ECD His tagged protein; test: SPR (Biacore 3000); antibody captured on anti-human Fc chip, monovalent HuCD47ECD 8xHis injected; column Affinity (nM)
# Description: as §1
# [6] = molecular target: T3, human CD47 (full length) expressed on …; test: FACS ligand blocking on CD47-CHO cells; blocked ligand FITC human SIRPa huFc at 5 ug/ml
# Description: The cells were then washed 3 times with the FACS buffer and the mean florescence intensities (MFI) of FITC were evaluated by FACS Caliber.
# [7] = molecular target: T2, human CD47ECD His tagged protein; test: ELISA ligand blocking, plate coated with human CD47 ECD His tagged protein at 1 ug/ml; blocked ligand human SIRPaECD muFc at 1 ug/ml, anti-mouse IgG-HRP
# Description: Briefly, microtiter plates were coated with human CD47ECD His tagged protein at 1 μg/ml in PBS, 100 μl well at 4° C. overnight, then blocked with 100 μl/well of 2% BSA. […] The plates were washed with PBS/Tween and then incubated with anti-mouse IgG-HRP for 1 hour at 37° C. After washing, the plates were developed with TMB substrate and analyzed by spectrophotometer at OD 450 nm.
# T3 sequence (Q08722 19-323): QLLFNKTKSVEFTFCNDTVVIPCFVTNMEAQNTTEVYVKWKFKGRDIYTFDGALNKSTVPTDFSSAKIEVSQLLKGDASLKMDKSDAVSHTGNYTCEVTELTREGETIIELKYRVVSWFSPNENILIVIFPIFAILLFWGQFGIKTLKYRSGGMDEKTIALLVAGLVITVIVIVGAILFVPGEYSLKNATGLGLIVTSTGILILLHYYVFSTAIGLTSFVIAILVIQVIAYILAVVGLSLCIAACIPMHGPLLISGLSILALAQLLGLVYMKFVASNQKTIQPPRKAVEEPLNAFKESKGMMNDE
# T1 sequence (Q08722 19-139 limits assumed): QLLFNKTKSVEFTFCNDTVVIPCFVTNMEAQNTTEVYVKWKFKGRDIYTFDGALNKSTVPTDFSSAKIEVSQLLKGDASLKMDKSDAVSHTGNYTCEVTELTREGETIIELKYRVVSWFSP
# T2 sequence (Q08722 19-139 limits assumed): as above
Kd [1] [nM],koff [1] [s⁻¹],kon [1] [M⁻¹ s⁻¹],Kd [2] [nM],koff [2] [s⁻¹],kon [2] [M⁻¹ s⁻¹],IC50 [3] [µg/mL],Kd [4] [nM],Kd [5] [nM],IC50 [6] [µg/mL],IC50 [7] [µg/mL],Binder
,,,,,,,,,7.3,2.3,"HuD36S4 H1/L1 humanized anti-CD47 antibody (antibody, V domains shown) VH: EVQLVESGGGLVQPGGSLRLSCAASGFTFSRYWMNWVRQAPGKGLEWVGQIRLKSDNYETHYAESVKGRFTISRDDSKNSLYLQMNSLKTEDTAVYYCAREGGYYVPFAYWGQGTLVTVSS VL: DIVMTQSPDSLAVSLGERATINCKSSQSLFKSRTRKNYLAWYQQKPGQPPKLLIYWASIRESGVPDRFSGSGSGTDFTLTISSLQAEDVAVYYCKQSYYLLTFGGGTKVEIK"
,,,,,,,,,13,2.76,"HuD36S4 H1/L2 humanized anti-CD47 antibody (antibody, V domains shown) VH: EVQLVESGGGLVQPGGSLRLSCAASGFTFSRYWMNWVRQAPGKGLEWVGQIRLKSDNYETHYAESVKGRFTISRDDSKNSLYLQMNSLKTEDTAVYYCAREGGYYVPFAYWGQGTLVTVSS VL: DIVMTQTPLSLPVTPGEPASISCKSSQSLFKSRTRKNYLAWYLQKPGQSPQLLIYWASIRESGVPDRFSGSGSGTDFTLKISRVEAEDVGVYYCKQSYYLLTFGGGTKVEIK"
,,,,,,,,,4.4,0.17,"HuD36S4 H3/L1 humanized anti-CD47 antibody (antibody, V domains shown) VH: EVQLVESGGGLVQPGGSLRLSCAASGFTFSRYWMNWVRQAPGKGLEWVAQIRLKSDNYETHYAESVKGRFTISRDDSKSSLYLQMNSLKTEDTAVYYCIEEGGYYVPFAYWGQGTLVTVSS VL: DIVMTQSPDSLAVSLGERATINCKSSQSLFKSRTRKNYLAWYQQKPGQPPKLLIYWASIRESGVPDRFSGSGSGTDFTLTISSLQAEDVAVYYCKQSYYLLTFGGGTKVEIK"
,,,,,,,,,2.5,0.1,"HuD36S4 H3/L2 humanized anti-CD47 antibody (antibody, V domains shown) VH: EVQLVESGGGLVQPGGSLRLSCAASGFTFSRYWMNWVRQAPGKGLEWVAQIRLKSDNYETHYAESVKGRFTISRDDSKSSLYLQMNSLKTEDTAVYYCIEEGGYYVPFAYWGQGTLVTVSS VL: DIVMTQTPLSLPVTPGEPASISCKSSQSLFKSRTRKNYLAWYLQKPGQSPQLLIYWASIRESGVPDRFSGSGSGTDFTLKISRVEAEDVGVYYCKQSYYLLTFGGGTKVEIK"

# Further lines, the binder ahead of its results:
Binder,Kd [1] [nM],koff [1] [s⁻¹],kon [1] [M⁻¹ s⁻¹],Kd [2] [nM],koff [2] [s⁻¹],kon [2] [M⁻¹ s⁻¹],IC50 [3] [µg/mL],Kd [4] [nM],Kd [5] [nM],IC50 [6] [µg/mL],IC50 [7] [µg/mL]
"D125S3 mouse/human chimeric anti-human CD47 antibody (antibody, V domains shown, also called chimeric D125S3) VH: EVQLVESGGDLVKPGGSLNLSCAASGFTFSDYGMSWVRQTPDMRLEWVATISKYGTYTSYPDSVKGRFTISRSNAKNTLYLQMSSLKSADTALYYCARRFFGNYNYWYFDVWGAGTTVTVSS VL: DIVLTQSPASLAVSLGQRATFSCRASESVDEFGISYIHWYKKSPGQPPKLLIYRASTLESGISARFSGSGSGTDFTLTINPVETDDVATYYCQQSNQDPLTFGAGTKLELK",0.346,7.72e-05,223000,3.62,0.000511,163000,15.4,0.346,3.62,,
"D36S4 mouse/human chimeric anti-human CD47 antibody (antibody, V domains shown, also called chimeric D36S4 antibody; D36S4 H/L) VH: EVKLEESGGGLVQPGGSMKLSCVASGFTFSRYWMNWVRQSPDKGLEWVAQIRLKSDNYETHYAESVKGRFTISRDDSKSSVYLQMNNLRAEDTGIYYCIEEGGYYVPFAYWGQGTLVTVSA VL: DIVVSQSPSSLAVSAGEKVTMSCKSSQSLFKSRTRKNYLAWYQQRPGQSPKLLIYWASIRESGVPDRFTGSGSGTEFTLTISSVQAEDLAVYYCKQSYYLLTFGAGTKLELK",0.0194,1.18e-05,605000,0.702,0.000236,337000,5.1,0.0194,0.702,1.6,0.07
"D28S1 mouse/human chimeric anti-human CD47 antibody (antibody, V domains shown, also called chimeric D28S1; D28S1VH/VL) VH: EVQLVESGGDLVKPGGSLKLSCAASGFTFTSYGMSWVRQTPDKRLEWVATINTGGSYTYYPDSVKGRFTISRDNAKNTLYLQMSSLKSEDTAMYYCARHTIKSLMDYWGQGTSVTVSS VL: ETTVTQSPASLSMAIGEKVTIRCITSTDIDDDMNWYQQKPGEPPKLLISEGNTLRPGVPSRFSSSGYGTDFVFIIENMFSEDVADYYCLQSDNLPYTFGSGTKLEIK",1.38,0.000413,299000,,,,12.3,1.38,,,
"D8S1 mouse/human chimeric anti-human CD47 antibody (antibody, V domains shown, also called chimeric D8S1) VH: EVQLQQSVAELVRPGASVKLSCTVSGFNIKNTYIYWVKQRPEQGLEWIGRIDPANGNTKDAPKFQGKATMTADTSSNTAYLQLSSLTSEDTAIYYCARGYGSGFAYWGQGTLVTVSA VL: DIQMTQTTSSLSASLGDRVTISCRASQDISNHLNWYQQKPDGIVKLLIYYTSRLHSGVPSRFSGSGSGTDYSLTISNLEQEDIATYFCQQGSTLPFTFGSGTKLEIK",0.295,4.77e-05,161000,3.28,0.00049,150000,19.4,0.295,3.28,,
"D96S1 mouse/human chimeric anti-human CD47 antibody (antibody, V domains shown, also called chimeric D96S1) VH: EVQLQQSGAELVKPGASVKLSCTASGFNIKDTYIHWVKQRPEQGLEWIGRIDPANGNIKSDPKFQGKATVTADTSSNTAYLQLSSLTSEDTAVYYCARSYGSSFASWGQGTLVTVSP VL: DIQMTQTTSSLSASLGDRVTISCRASQDISNHLNWYQQKPDGAVKLLIYYTSRLHSGVPSRFSGSGSGTDYSLTISNLEQEDIATYFCQQGSTFPYTFGGGTKLEIK",,1.45e-05,257000,3.13,0.000253,80900,11.3,0.562,3.13,,
"D41S2 mouse/human chimeric anti-human CD47 antibody (antibody, V domains shown, also called chimeric D41S2) VH: EVQLQQSVAELVRPGASVKLSCTPSGFNIKNTYIYWVRQRPEQGLEWIGRIDPANGNTKDAPKFQGKATMTADTSSNTAYLQLSSLTSEDTAIYYCARGYGSGFAYWGQGTLVTVSA VL: DIQMTQTTSSLSASLGDRVTISCRASQDISNHLNWYQQKPDGTVKLLIYYTSRLHSGVPSRFSGSGSGTDYSLTISNLEQEDIATYFCQQGSTLPFTFGSGTKLEIK",0.228,3.34e-05,147000,5.2,0.000756,145000,11.6,0.228,5.2,,
"HuD36S4 H2/L1 humanized anti-CD47 antibody (antibody, V domains shown) VH: EVQLVESGGGLVQPGGSLRLSCAASGFTFSRYWMNWVRQAPGKGLEWVGQIRLKSDNYETHYAESVKGRFTISRDDSKNSLYLQMNSLKTEDTAVYYCIEEGGYYVPFAYWGQGTLVTVSS VL: DIVMTQSPDSLAVSLGERATINCKSSQSLFKSRTRKNYLAWYQQKPGQPPKLLIYWASIRESGVPDRFSGSGSGTDFTLTISSLQAEDVAVYYCKQSYYLLTFGGGTKVEIK",,,,,,,,,,1.9,0.09
"HuD36S4 H2/L2 humanized anti-CD47 antibody (antibody, V domains shown) VH: EVQLVESGGGLVQPGGSLRLSCAASGFTFSRYWMNWVRQAPGKGLEWVGQIRLKSDNYETHYAESVKGRFTISRDDSKNSLYLQMNSLKTEDTAVYYCIEEGGYYVPFAYWGQGTLVTVSS VL: DIVMTQTPLSLPVTPGEPASISCKSSQSLFKSRTRKNYLAWYLQKPGQSPQLLIYWASIRESGVPDRFSGSGSGTDFTLKISRVEAEDVGVYYCKQSYYLLTFGGGTKVEIK",,,,,,,,,,3.6,0.11
